# Legend:
# Format in all cases: in vivo
# [1] = test system: transgenic soybean plants; experiment: Mesotrione tolerance assay of Os.TDO transgenic soybean events (Construct 32); settings: for injury rate: sprayed at V1, rated 13 days after treatment
# Excerpt: Mesotrione herbicide rate is expressed as grams active ingredient per hectare (g a.i./ha); 1X commercial rate=105 g a.i./ha. […] Plants at V1 growth stage were sprayed with mesotrione (in Callisto®, Syngenta in 1% crop oil) at 1X, 2X, 4X, 8X, and 16X of commercial rate (equivalent to 105, 210, 420, 840, and 1680 g a.i./ha, respectively). Crop injury ratings were taken 13 days after mesotrione treatment.
# Os.TDO transgenic event-125 and wild-type control plants were sprayed with 2X of commercial rate of mesotrione (Callisto, 210 g a.i./ha), tembotrione (Laudis, 184 g a.i./ha) and sulcotrione (Sulcogan, 660 g a.i./ha). Each bar represents the mean of injury rating of 8 reps +/−SE. * indicates significant difference vs corresponding control at p<0.01.
# The Os.TDO sequence was cloned into a set of binary vectors using standard cloning methods known in the art with its expression driven by different constitutive promoters and different 3′UTRs. Transgenic soybean plants comprising these constructs were developed using an Agrobacterium-mediated transformation system as described in Larue et al. (2020). The copy number of the transgene was determined via a Taqman assay and events with a single copy of the T-DNA insertion were selected for evaluation of mesotrione tolerance. Briefly, R2 and later generation homozygous lines of three soybean transgenic events derived from Construct 32 were selected for a mesotrione tolerance greenhouse assay. Construct 32 contained two expression cassettes between the T-DNA borders: one for expression of Os.TDO and the other for expression of a selectable marker. The Os.TDO cassette utilized the cauliflower mosaic virus (CaMV) 35S promotor and the 5′ UTR of HSP70 from petunia to drive expression of Os.TDO, followed by the 3′ UTR of the nopaline synthase (nos) gene from the T-DNA region of the Ti plasmid of Agrobacterium tumefaciens, which functions to direct polyadenylation of the mRNA. The selectable marker cassette conferring spectinomycin and streptomycin resistance comprises the promoter, intron, and leader sequences from the Arabidopsis thaliana actin 7 gene, the transit peptide region of Arabidopsis thaliana EPSPS, the coding region of the Tn7 adenylyltransferase (AAD (3″)) gene from E. coli, and the 3′ non-translated region from the Agrobacterium tumefaciens nopaline synthase gene.
# Each plant was grown in a 3.5″ pot with soybean potting media in a growth chamber under conditions of 28° C./24° C. (light/dark) and a photoperiod of 16 hr light at 700 μE/8 hr dark, and fertilized with Peters general purpose fertilizer. Eight plants at V1 growth stage were sprayed with mesotrione (in Callisto®, Syngenta in 1% crop oil) at 1X, 2X, 4X, 8X, and 16X of commercial rate (equivalent to 105, 210, 420, 840, and 1680 g active ingredient/ha, respectively). Crop injury ratings were taken 13 days after mesotrione treatment.
# [2] = test system: transgenic soybean plants; experiment: Mesotrione injury of R0 transgenic soybean plants expressing TDO homologs; settings: promoter Constitutive 2, 3' UTR B; 210 g a.i./ha mesotrione at V3-V4, rated 7-14 days after treatment; mean of all tested events
# Description: Plant expression vectors comprising the selected TDO homologs under the control of one of two constitutive promoters were transformed into soybean via an Agrobacterium tumefaciens-mediated method. Following Agrobacterium transformation, R0 transgenic soybean plants containing a single copy of the transgene were identified through molecular characterization and segregation analysis. Transgenic and wild-type (control) plants were grown in 6-inch pots filled with BM7 soilless mix in a growth chamber under the conditions of 28° C./23° C. (light/dark) and a 16 hr light/8 hr dark photoperiod. Plants were fertilized with 15-5-15 liquid fertilizer at the V3-V4 growth stage and treated with 210 g a.i./ha mesotrione (1X=105 g a.i./ha; Callisto®, Syngenta in 1% crop oil). Plants were visually rated 7-14 days after treatment on a scale of 0% to 100%, with 0%=no injury and 100%=plant death, relative to the wild-type controls. The results summarized in Table 2 represent the mean of all tested events (10-15) for each construct.
# [3] = test system: transgenic soybean plants; experiment: Response of R0 soybean plants transformed with Round 2 TDO variants to mesotrione; settings: same expression elements; Os.TDO control failed transformation in this experiment
# Excerpt: The next set of experiments was focused on determining if the balance between improved enzyme stability could outweigh a reduction in activity observed at optimal temperatures in soybean plants. […] To test this hypothesis, the eight variants from Round 2 biochemical analysis described in the preceding paragraph were transformed into soybean through Agrobacterium-mediated transformation, along with three controls. One of the controls (TDO_9) was a variant from the high-throughput screens that had poor activity. Two other controls were the D08 variant and the Os.TDO. R0 transgenic soybean plants were sprayed with the mesotrione herbicide to screen for herbicide tolerance. […] These included the Os.TDO control, the D08 variant and one Round 2 variant. The plants were scored for percent injury as described in the previous examples.
molecule,measurement,setting,value
"Os.TDO: TDO from Oryza sativa (HIS1), SEQ ID NO:2, polynucleotide codon optimized for dicot expression (protein, listed as Oryza sativa) MADESWRAPAIVQELAAAGVEEPPSRYLLREKDRSDVKLVAAELPEPLPVVDLSRLDGAEEATKLRVALQNWGFFLLTNHGVEASLMDSVMNLSREFFNQPIERKQKFSNLIDGKNFQIQGYGTDRVVTQDQILDWSDRLHLRVEPKEEQDLAFWPDHPESFRDVLNKYASGTKRIRDDIIQAMAKLLELDEDYFLDRLNEAPAFARFNYYPPCPRPDLVFGIRPHSDGTLLTILLVDKDVSGLQVQRDGKWSNVEATPHTLLINLGDTMEVMCNGIFRSPVHRVVTNAEKERISLAMLYSVNDEKDIEPAAGLLDENRPARYRKVSVEEFRAGIFGKFSRGERYIDSLRI",tolerance to sulcotrione,"[1]; 2X commercial rate sulcotrione (Sulcogan, 660 g a.i./ha), event-125",provided tolerance
same,tolerance to tembotrione,"[1]; 2X commercial rate tembotrione (Laudis, 184 g a.i./ha), event-125",provided tolerance
same,injury rate,[1]; mesotrione 16X (1680 g a.i./ha),below 15%
same,injury rate,"[1]; mesotrione at 8X or lower rate (1X=105 g a.i./ha), three transgenic events",lower than 10%
same,tolerance to mesotrione,[1]; up to 16X of commercial application rate (1X=105 g a.i./ha),excellent tolerance
same,% Injury,[2],12%
same,typical injury rating for R0 soybean,[3],high 20% to low 30%
